From paper PMC3708937, “Function of FlhB, a Membrane Protein Implicated in the Bacterial Flagellar Type III Secretion System” (PLoS ONE, 2013)

T1: Aquifex FlhBC (C-terminal cytoplasmic domain of Aquifex aeolicus FlhB) (Aquifex aeolicus, UniProt O67813 213-350)
T1 construct: FlhB of Aquifex aeolicus, cytoplasmic domain FlhBC; also called AquFlhBC; source: purified as described previously [14]
T1 sequence (looked up): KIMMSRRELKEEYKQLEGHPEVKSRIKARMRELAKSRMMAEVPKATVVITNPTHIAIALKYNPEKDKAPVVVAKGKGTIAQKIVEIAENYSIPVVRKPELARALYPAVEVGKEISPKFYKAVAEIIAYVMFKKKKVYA

B1: Salmonella FliS (wild type) (natural protein)
chain: MYTASGIKAYAQVSVESAVMSASPHQLIEMLFDGANSALVRARLFLEQGDVVAKGEALSKAINIIDNGLKAGLDQEKGGEIATNLSELYDYMIRRLLQANLRNDAQAIEEVEGLLSNIAEAWKQISPKASFQESR
notes: FliS, flagellin-specific chaperone of Salmonella enterica serovar Typhimurium; also called wild-type FliS
B2: Salmonella FliS A22T (natural protein)
chain: MYTASGIKAYAQVSVESAVMSTSPHQLIEMLFDGANSALVRARLFLEQGDVVAKGEALSKAINIIDNGLKAGLDQEKGGEIATNLSELYDYMIRRLLQANLRNDAQAIEEVEGLLSNIAEAWKQISPKASFQESR
notes: FliS of Salmonella enterica serovar Typhimurium with the point mutation A22T; The mutation arose as a spontaneous extragenic suppressor in the laboratory strain CB351; expression and purification of the protein are not described; also called FliS mutant A22T; fliS22264(A22T)

Key:
[1] = target: T2, Salmonella FliC (flagellin) (Salmonella enterica serovar Typhimurium, UniProt P06179 1-495); assay: SPR; Biacore T100; AquFlhBC or FliC amine-coupled to a CM5 chip; FliS or FliS A22T flowed at 30 µl/min for 12 min; 10 mM HEPES pH 7.4, 150 mM NaCl, 0.05% (v/v) Surfactant P20; 25°C; steady-state analysis, 1:1 binding model; details: both partners purified
T2 construct: FliC (flagellin), major component of the flagellar filament, Salmonella enterica serovar Typhimurium
T2 sequence (P06179 whole entry): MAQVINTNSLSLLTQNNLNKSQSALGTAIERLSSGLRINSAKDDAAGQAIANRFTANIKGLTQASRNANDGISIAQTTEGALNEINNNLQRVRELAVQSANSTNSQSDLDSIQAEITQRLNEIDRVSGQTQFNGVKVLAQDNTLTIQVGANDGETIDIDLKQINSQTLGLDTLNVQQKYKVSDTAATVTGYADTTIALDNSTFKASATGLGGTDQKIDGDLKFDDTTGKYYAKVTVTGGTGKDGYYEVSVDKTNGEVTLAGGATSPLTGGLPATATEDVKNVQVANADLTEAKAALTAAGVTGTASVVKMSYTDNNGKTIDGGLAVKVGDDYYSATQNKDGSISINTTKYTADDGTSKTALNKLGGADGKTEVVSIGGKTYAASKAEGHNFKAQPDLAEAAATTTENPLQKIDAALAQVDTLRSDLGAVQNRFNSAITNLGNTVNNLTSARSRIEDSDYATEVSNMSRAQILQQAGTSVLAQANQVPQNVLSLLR

[2] = target: T1, Aquifex FlhBC (C-terminal cytoplasmic …); assay: as above; details: both partners purified

Binder | Kd [1] [µM] | Kd [2] [µM]
B1 | 0.7 | 169
B2 | 11.9 | 304
